{
  "source": "IntAct's records for PubMed 29039417",
  "parents": {"B1": {"name": "BBSome complex member BBS1 (Homo sapiens), Q8NFJ9 (parent)", "chain": "MAAASSSDSDACGAESNEANSKWLDAHYDPMANIHTFSACLALADLHGDGEYKLVVGDLGPGGQQPRLKVLKGPLVMTESPLPALPAAAATFLMEQHEPRTPALALASGPCVYVYKNLRPYFKFSLPQLPPNPLEQDLWNQAKEDRIDPLTLKEMLESIRETAEEPLSIQSLRFLQLELSEMEAFVNQHKSNSIKRQTVITTMTTLKKNLADEDAVSCLVLGTENKELLVLDPEAFTILAKMSLPSVPVFLEVSGQFDVEFRLAAACRNGNIYILRRDSKHPKYCIELSAQPVGLIRVHKVLVVGSTQDSLHGFTHKGKKLWTVQMPAAILTMNLLEQHSRGLQAVMAGLANGEVRIYRDKALLNVIHTPDAVTSLCFGRYGREDNTLIMTTRGGGLIIKILKRTAVFVEGGSEVGPPPAQAMKLNVPRKTRLYVDQTLREREAGTAMHRAFQTDLYLLRLRAARAYLQALESSLSPLSTTAREPLKLHAVVQGLGPTFKLTLHLQNTSTTRPVLGLLVCFLYNEALYSLPRAFFKVPLLVPGLNYPLETFVESLSNKGISDIIKVLVLREGQSAPLLSAHVNMPGSEGLAAA", "partner": "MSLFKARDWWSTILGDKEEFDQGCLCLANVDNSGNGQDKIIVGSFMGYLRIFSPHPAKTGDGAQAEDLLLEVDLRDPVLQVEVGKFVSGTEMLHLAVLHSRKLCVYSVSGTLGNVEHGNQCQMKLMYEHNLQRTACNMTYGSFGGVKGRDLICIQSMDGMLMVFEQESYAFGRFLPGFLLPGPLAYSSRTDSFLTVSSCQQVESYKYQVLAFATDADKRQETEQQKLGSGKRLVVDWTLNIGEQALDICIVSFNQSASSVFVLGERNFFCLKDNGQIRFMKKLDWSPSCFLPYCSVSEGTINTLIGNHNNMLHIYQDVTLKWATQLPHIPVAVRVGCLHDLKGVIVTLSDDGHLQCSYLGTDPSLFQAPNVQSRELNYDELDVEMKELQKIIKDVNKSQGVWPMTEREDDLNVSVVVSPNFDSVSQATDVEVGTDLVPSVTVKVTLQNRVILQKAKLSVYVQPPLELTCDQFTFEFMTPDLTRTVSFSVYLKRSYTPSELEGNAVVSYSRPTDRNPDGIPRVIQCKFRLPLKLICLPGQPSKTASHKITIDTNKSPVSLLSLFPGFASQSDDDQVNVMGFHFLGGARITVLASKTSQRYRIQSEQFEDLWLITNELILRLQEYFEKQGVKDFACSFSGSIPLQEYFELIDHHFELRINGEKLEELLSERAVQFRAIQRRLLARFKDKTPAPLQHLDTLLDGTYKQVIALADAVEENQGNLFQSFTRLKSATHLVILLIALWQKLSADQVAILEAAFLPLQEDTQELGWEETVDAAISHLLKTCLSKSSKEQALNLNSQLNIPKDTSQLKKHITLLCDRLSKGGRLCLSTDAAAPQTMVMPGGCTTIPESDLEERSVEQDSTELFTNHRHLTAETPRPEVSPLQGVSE"}},
  "data": [
    {"variants_of": "B1", "settings": "with pthb1_human BBS9, Q3SYG4", "values": [
      {"variant": "MAAASSSDSDACGAESNEANSKWLDAHYDPMANIHTFSACLALADLHGDGEYKLVVGDLGPGGQQPRLKVLKGPLVMTESPLPALPAAAATFLMEQHEPRTPALALASGPCVYVYKNLRPYFKFSLPQLPPNPLEQDLWNQAKEDRIDPLTLKEMLESIRETAEEPLSIQSLRFLQLELSEMEAFVNQHKSNSIKRQTVITTMTTLKKNLADEDAVSCLVLGTENKELLVLDPEAFTILAKMSLPSVPVFLEVSGQFDVEFRLAAACRNGNIYILRRDSKHPKYCIELSAQPVGLIRVHKVLVVGSTQDSLHGFTHKGKKLWTVQMPAAILTMNLLEQHSRGLQAVMAGLANGEVRIYRDKALLNVIHTPDAVTSLCFGRYGREDNTLIMTTRGGGLIIKILKRTAVFVEGGSEVGPPPAQAKKLNVPRKTRLYVDQTLREREAGTAMHRAFQTDLYLLRLRAARAYLQALESSLSPLSTTAREPLKLHAVVQGLGPTFKLTLHLQNTSTTRPVLGLLVCFLYNEALYSLPRAFFKVPLLVPGLNYPLETFVESLSNKGISDIIKVLVLREGQSAPLLSAHVNMPGSEGLAAA", "note": "[M423K]", "effect of a mutation on the interaction": "with no effect"},
      {"variant": "MAAASSSDSDACGAESNEANSKWLDAHYDPMANIHTFSACLALADLHGDGEYKLVVGDLGPGGQQPRLKVLKGPLVMTESPLPALPAAAATFLMEQHEPRTPALALASGPCVYVYKNLRPYFKFSLPQLPPNPLEQDLWNQAKEDRIDPLTLKEMLESIRETAEEPLSIQSLRFLQLELSEMEAFVNQHKSNSIKRQTVITTMTTLKKNLADEDAVSCLVLGTENKELLVLDPEAFTILAKMSLPSVPVFLEVSGQFDVEFRLAAACRNGNIYILRRDSKHPKYCIELSAQPVGLIRVHKVLVVGSTQDSLHGFTHKGKKLWTVQMPAAILTMNLLEQHSRGLQAVMAGLANGEVRIYRDKALLNVIHTPDAVTSLCFGRYGREDNTLIMTTRGGGLIIKILKRTAVFVEGGSEVGPPPAQAMKLNVPRKTRLYVDQTLREREAGTAMHRAFQTDLYLLRKRAARAYLQALESSLSPLSTTAREPLKLHAVVQGLGPTFKLTLHLQNTSTTRPVLGLLVCFLYNEALYSLPRAFFKVPLLVPGLNYPLETFVESLSNKGISDIIKVLVLREGQSAPLLSAHVNMPGSEGLAAA", "note": "[L461K]", "effect of a mutation on the interaction": "with no effect"},
      {"variant": "MAAASSSDSDACGAESNEANSKWLDAHYDPMANIHTFSACLALADLHGDGEYKLVVGDLGPGGQQPRLKVLKGPLVMTESPLPALPAAAATFLMEQHEPRTPALALASGPCVYVYKNLRPYFKFSLPQLPPNPLEQDLWNQAKEDRIDPLTLKEMLESIRETAEEPLSIQSLRFLQLELSEMEAFVNQHKSNSIKRQTVITTMTTLKKNLADEDAVSCLVLGTENKELLVLDPEAFTILAKMSLPSVPVFLEVSGQFDVEFRLAAACRNGNIYILRRDSKHPKYCIELSAQPVGLIRVHKVLVVGSTQDSLHGFTHKGKKLWTVQMPAAILTMNLLEQHSRGLQAVMAGLANGEVRIYRDKALLNVIHTPDAVTSLCFGRYGREDNTLIMTTRGGGLIIKILKRTAVFVEGGSEVGPPPAQAMKLNVPRKTRLYVDQTLREREAGTAMHRAFQKDLYLLRLRAARAYLQALESSLSPLSTTAREPLKLHAVVQGLGPTFKLTLHLQNTSTTRPVLGLLVCFLYNEALYSLPRAFFKVPLLVPGLNYPLETFVESLSNKGISDIIKVLVLREGQSAPLLSAHVNMPGSEGLAAA", "note": "[T454K]", "effect of a mutation on the interaction": "with no effect"},
      {"variant": "MAAASSSDSDACGAESNEANSKWLDAHYDPMANIHTFSACLALADLHGDGEYKLVVGDLGPGGQQPRLKVLKGPLVMTESPLPALPAAAATFLMEQHEPRTPALALASGPCVYVYKNLRPYFKFSLPQLPPNPLEQDLWNQAKEDRIDPLTLKEMLESIRETAEEPLSIQSLRFLQLELSEMEAFVNQHKSNSIKRQTVITTMTTLKKNLADEDAVSCLVLGTENKELLVLDPEAFTILAKMSLPSVPVFLEVSGQFDVEFRLAAACRNGNIYILRRDSKHPKYCIELSAQPVGLIRVHKVLVVGSTQDSLHGFTHKGKKLWTVQMPAAILTMNLLEQHSRGLQAVMAGLANGEVRIYRDKALLNVIHTPDAVTSLCFGRYGREDNTLIMTTRGGGLIIKILKRTAVFVEGGSEVGPPPAQAMKLNVPRKTRLYVDQTLREREAGTAMHRAFQTDLYLKRLRAARAYLQALESSLSPLSTTAREPLKLHAVVQGLGPTFKLTLHLQNTSTTRPVLGLLVCFLYNEALYSLPRAFFKVPLLVPGLNYPLETFVESLSNKGISDIIKVLVLREGQSAPLLSAHVNMPGSEGLAAA", "note": "[L459K]", "effect of a mutation on the interaction": "with no effect"},
      {"variant": "MAAASSSDSDACGAESNEANSKWLDAHYDPMANIHTFSACLALADLHGDGEYKLVVGDLGPGGQQPRLKVLKGPLVMTESPLPALPAAAATFLMEQHEPRTPALALASGPCVYVYKNLRPYFKFSLPQLPPNPLEQDLWNQAKEDRIDPLTLKEMLESIRETAEEPLSIQSLRFLQLELSEMEAFVNQHKSNSIKRQTVITTMTTLKKNLADEDAVSCLVLGTENKELLVLDPEAFTILAKMSLPSVPVFLEVSGQFDVEFRLAAACRNGNIYILRRDSKHPKYCIELSAQPVGLIRVHKVLVVGSTQDSLHGFTHKGKKLWTVQMPAAILTMNLLEQHSRGLQAVMAGLANGEVRIYRDKALLNVIHTPDAVTSLCFGRYGREDNTLIMTTRGGGLIIKILKRTAVFVEGGSEVGPPPAQAMKLNVPRKTRLYVDQTLREREAGTAMHRAFQTDLYLLRLRAARAYLQALESSLSPLSTTAREPLKLHAVVQGLGPTFKLTLHLQNTSTTRPVLGLLVCFLYNEALYSLPRAFFKVPLLVPGLNYPLETFVESLSNKEISDIIKVLVLREGQSAPLLSAHVNMPGSEGLAAA", "note": "[G559E]", "effect of a mutation on the interaction": "with no effect"}
    ]}
  ]
}
